Consider 17 molecules from patent US20220040319A1 (Regeneron, published 2022).

B1: H4H13302P2 (antibody, human IgG4, V domains shown)
VH: QVQLVESGGGVVQPGRSLRLSCAASGFTFSNFGMHWVRQAPGKGLEWVAGIWFDGSNKNYIDSVKGRFTISRDNSKNTLYLQMNSLRAEDTAVYYCAREGYDSGTDYIPYDIFDIWGQGTMVTVSS
VL: not shown
B2: H4H13313P2 (antibody, human IgG4, V domains shown)
VH: QVQLVESGGGVVQPGRSLRLSCSASGFSFSHFGMHWVRQVPGGGLEWVTSIWFDGSNRYYADSLKGRFTISRDNSKNTLYLEMNSLRAEDTAVYYCVREGILGTTNPYDVFDVWGQGTMVTVSS
VL: not shown
B3: H4H13316P2 (antibody, human IgG4, V domains shown)
VH: EVQLVESGGGLVQPGGSLRLSCAASGFTFRSYVMSWFRQAPGKGLEWVSGMSGSGGSTSYADSVKGRFTISRDNSKNTLYLLMNSLRTEDTAVYYCAKENGANWNYGYYGMDVWGQGTTVTVSS
VL: not shown
B4: H4H13325P2 (antibody, human IgG4, V domains shown)
VH: EVQLLESGGGWVQPGGSLRLSCAASGFAFSNYAMNWVRQTPGKGLEWVSVISSSGGNTYYADSVKGRFAISRDNSRDTLHLQMNRLRVEDTAVYYCAKEIRPYYDLSYYYGMDVWGQGTTVTVSS
VL: not shown
B5: H4H13301P2 (antibody, human IgG4, V domains shown)
VH: QVQLVESGGGVVQPGTSLRLSCVASGFTFRNFGMHWVRQAPGKGLEWVANIWFDGSNENYVESIQGRFTISRDNSKNTLNLQMNSLRAEDSAVYYCVREGILGTTNPYDAFDVWGQGTMVTVSS
VL: not shown
B6: H1H13301P2 (antibody, IgG1, V domains shown)
VH: B5 VH
VL: not shown
B7: H4H13312P2-Maytansinoid A (antibody, IgG4, V domains shown)
VH: EVQLVESGGGLVQPGGSLRLSCAASGFIVTTNYMTWLRQAPGKGLEWVSLIYSSGHTYYADSVKGRFTISRHNSKNTLYLQMDSLRAEDTAVYYCASAFAADVFDIWGQGTMVTVSS
VL: not shown
modifications: SMCC-DM1 (Maytansinoid A) linker-payload conjugated to the antibody; residues not stated
B8: H4H14635D-Maytansinoid A (bispecific antibody, V domains shown)
VH 1: QVQLVESGGGVVQPGRSLRVSCVVSGFTFSSFGMHWVRQAPDKGLEWVAVIWYDGSNDYYSDSVKGRFTISRDNSKNTLFLQMNRLRAEDTAVYYCARANNWNRFDAFDLWGQGTMVTVSS
VH 2: B7 VH
VL: not shown
modifications: SMCC-DM1 (Maytansinoid A) linker-payload conjugated to the antibody; residues not stated
B9: H4H13312P2-Maytansinoid B (antibody, IgG4, V domains shown)
VH: B7 VH
VL: not shown
modifications: Maytansinoid B (Compound 1, FIG. 20) linker-payload conjugated to the antibody; residues not stated
B10: H4H14635D-Maytansinoid B (bispecific antibody, V domains shown)
VH 1: B8 VH 1
VH 2: B7 VH
VL: not shown
modifications: Maytansinoid B (Compound 1, FIG. 20) linker-payload conjugated to the antibody; residues not stated
B11: H4H13331P2 (antibody, human IgG4, V domains shown)
VH: QVQLQESGPGLVKSSETLSLTCTVSGGSIRNFYWSWLRQPPGKGLEWIGHINYNGGTDYNPSLKSRVTISVDTSKNQFSLNLNSVTAADTAVYYCARQRFYGMDVWGPGTTVTVSS
VL: not shown
notes: human IgG4 Fc (H4H), bivalent monospecific
B12: H4H13302P2 (antibody, human IgG4, V domains shown)
VH: B1 VH
VL: not shown
notes: as for B11
B13: H4H13300P2 (antibody, human IgG4, V domains shown)
VH: QVQLVESGGGVVQPGRSLRLSCAVSGFTFSSYGMHWVRQAPGKGLEWVANIWYDGTNDYYPYSVKGRFTISRDNSQNTLYLQMNSLRAEDTAVYYCAREDFINYRSFDYWGQGTLVTVSS
VL: not shown
notes: as for B11
B14: H4H13299P2 (antibody, human IgG4, V domains shown)
VH: EVQLVESGGGLVQPGGSLRLSCAASGFIFSNYEMNWVRQAPGKGLEWISYITSSGNMKYYADSVKGRFTISRDNDKNSLYLQMSSLRVEDTAVYYCVRGGRFLEWLTYYVMVVWGQGTTVTVSS
VL: not shown
notes: as for B11
B15: H4H13325P2 (antibody, human IgG4, V domains shown)
VH: B4 VH
VL: not shown
notes: as for B11
B16: H4H13295P2 (antibody, human IgG4, V domains shown)
VH: B8 VH 1
VL: not shown
notes: as for B11
B17: H4H13301P2 (antibody, human IgG4, V domains shown)
VH: B5 VH
VL: not shown
notes: as for B11
Wherever % Inhibition, HEK293/SRE-Luc Blocking Activity (HGF, 1 h mAb pre-bind) is given: test concentration or dose not given here.

T3 sequence (P08581 other isoform, or with tags, fused parts or gaps limits assumed, chain 1 of 2): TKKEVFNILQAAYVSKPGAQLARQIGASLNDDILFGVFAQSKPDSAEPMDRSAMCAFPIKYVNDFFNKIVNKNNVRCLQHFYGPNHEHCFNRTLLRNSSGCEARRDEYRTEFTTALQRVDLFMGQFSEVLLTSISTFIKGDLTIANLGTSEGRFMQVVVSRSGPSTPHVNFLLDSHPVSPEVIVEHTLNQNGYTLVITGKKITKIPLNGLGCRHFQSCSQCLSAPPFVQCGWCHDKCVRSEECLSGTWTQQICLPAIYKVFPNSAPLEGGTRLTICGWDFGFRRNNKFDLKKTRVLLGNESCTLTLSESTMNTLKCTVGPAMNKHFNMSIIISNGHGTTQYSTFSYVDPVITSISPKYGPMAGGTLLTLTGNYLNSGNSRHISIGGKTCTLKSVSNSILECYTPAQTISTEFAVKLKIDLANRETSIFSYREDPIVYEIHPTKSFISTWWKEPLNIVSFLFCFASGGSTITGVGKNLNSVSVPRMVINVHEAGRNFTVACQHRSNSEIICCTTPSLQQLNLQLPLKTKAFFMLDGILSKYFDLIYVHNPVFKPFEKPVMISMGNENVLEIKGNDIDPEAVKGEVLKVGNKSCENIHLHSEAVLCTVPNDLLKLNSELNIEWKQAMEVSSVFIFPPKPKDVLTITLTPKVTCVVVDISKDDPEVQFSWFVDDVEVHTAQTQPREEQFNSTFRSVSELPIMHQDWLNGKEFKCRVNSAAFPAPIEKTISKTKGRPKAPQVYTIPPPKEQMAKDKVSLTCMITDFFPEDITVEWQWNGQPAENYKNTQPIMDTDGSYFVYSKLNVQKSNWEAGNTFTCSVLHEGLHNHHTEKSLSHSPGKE
T3 sequence (P08581 27-307 limits assumed, chain 2 of 2): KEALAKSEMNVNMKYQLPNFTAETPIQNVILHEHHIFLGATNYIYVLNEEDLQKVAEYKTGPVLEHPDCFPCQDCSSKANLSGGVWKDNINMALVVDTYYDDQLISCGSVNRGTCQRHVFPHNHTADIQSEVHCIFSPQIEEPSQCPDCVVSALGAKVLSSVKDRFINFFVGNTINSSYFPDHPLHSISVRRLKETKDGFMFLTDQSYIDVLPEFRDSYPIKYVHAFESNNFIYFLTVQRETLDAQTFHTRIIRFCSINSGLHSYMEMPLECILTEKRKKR
T1 sequence (P08581 25-1390 limits assumed, form in doubt): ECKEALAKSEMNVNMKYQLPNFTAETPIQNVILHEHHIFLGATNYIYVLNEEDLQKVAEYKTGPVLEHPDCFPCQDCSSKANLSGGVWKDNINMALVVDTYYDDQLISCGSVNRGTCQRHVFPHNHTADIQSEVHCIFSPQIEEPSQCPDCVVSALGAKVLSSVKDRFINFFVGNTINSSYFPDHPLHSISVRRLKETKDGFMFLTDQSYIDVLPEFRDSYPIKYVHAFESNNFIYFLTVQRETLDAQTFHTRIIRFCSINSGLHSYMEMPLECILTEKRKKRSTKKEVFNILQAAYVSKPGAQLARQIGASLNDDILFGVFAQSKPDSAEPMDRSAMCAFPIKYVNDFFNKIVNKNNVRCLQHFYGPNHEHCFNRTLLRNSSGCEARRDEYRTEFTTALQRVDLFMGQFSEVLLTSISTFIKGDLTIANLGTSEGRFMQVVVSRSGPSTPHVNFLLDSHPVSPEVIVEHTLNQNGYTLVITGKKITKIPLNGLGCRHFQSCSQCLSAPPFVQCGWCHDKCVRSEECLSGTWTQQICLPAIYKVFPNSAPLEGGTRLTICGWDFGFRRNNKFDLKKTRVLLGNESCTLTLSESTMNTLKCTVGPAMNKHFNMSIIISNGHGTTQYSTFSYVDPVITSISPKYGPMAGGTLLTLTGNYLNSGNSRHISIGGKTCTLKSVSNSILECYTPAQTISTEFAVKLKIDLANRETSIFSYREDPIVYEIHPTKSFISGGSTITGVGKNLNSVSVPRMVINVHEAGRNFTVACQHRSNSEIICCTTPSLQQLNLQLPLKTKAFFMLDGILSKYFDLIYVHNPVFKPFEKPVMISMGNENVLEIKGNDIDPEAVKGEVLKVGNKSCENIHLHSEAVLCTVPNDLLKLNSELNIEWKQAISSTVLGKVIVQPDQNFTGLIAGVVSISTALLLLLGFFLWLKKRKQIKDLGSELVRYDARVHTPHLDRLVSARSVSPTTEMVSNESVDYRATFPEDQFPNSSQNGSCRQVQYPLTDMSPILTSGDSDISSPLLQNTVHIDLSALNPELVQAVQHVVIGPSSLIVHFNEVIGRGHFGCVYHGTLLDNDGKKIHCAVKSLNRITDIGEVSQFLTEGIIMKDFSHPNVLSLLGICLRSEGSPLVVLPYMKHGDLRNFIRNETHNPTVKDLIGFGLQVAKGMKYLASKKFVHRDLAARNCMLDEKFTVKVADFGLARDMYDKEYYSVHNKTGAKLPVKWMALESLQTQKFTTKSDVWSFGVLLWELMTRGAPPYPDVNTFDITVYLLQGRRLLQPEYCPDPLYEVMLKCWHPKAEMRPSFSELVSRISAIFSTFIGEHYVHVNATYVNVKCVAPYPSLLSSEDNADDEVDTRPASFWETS

The first test has as its target T1, human MET on cells (human, UniProt P08581 25-1390). In words: cell-based or functional assay.
With B1, the “% Inhibition, HEK293/SRE-Luc Blocking Activity (HGF, 1 h mAb pre-bind)” value was determined as 45%; the “Fold Response, Ligand (HGF)-Independent HEK293/SRE-Luc Activation” value worked out at 1.8 fold; the “IC50, HEK293/SRE-Luc Blocking Activity (HGF, 1 h mAb pre-bind)” value (“IC50, HEK293/SRE-Luc Blocking Activity” below) was 1.6 nM.

For the molecule B2, the “% Inhibition, HEK293/SRE-Luc Blocking Activity (HGF, 1 h mAb pre-bind)” value came to 47%; the “Fold Response, Ligand (HGF)-Independent HEK293/SRE-Luc Activation” value turned out to be 1.2 fold; the “IC50, HEK293/SRE-Luc Blocking Activity” value is 2.3 nM.

On to B3, for which the “% Inhibition, HEK293/SRE-Luc Blocking Activity (HGF, 1 h mAb pre-bind)” value worked out at 74%; the “EC50, Ligand (HGF)-Independent HEK293/SRE-Luc Activation” value came out at 0.047 nM; the “Fold Response, Ligand (HGF)-Independent HEK293/SRE-Luc Activation” value stood at 2.3 fold; the “IC50, HEK293/SRE-Luc Blocking Activity” value came to 0.0078 nM.

In the case of B4, the “% Inhibition, HEK293/SRE-Luc Blocking Activity (HGF, 1 h mAb pre-bind)” value was determined as 69%; the “EC50, Ligand (HGF)-Independent HEK293/SRE-Luc Activation” value amounted to 0.19 nM; the “Fold Response, Ligand (HGF)-Independent HEK293/SRE-Luc Activation” value stood at 4.3 fold; the “IC50, HEK293/SRE-Luc Blocking Activity” value was 0.013 nM.

For the molecule B5, the “% Inhibition, HEK293/SRE-Luc Blocking Activity (HGF, 1 h mAb pre-bind)” value was found to be 40%; the “Fold Response, Ligand (HGF)-Independent HEK293/SRE-Luc Activation” value came to 1.6 fold; the “IC50, HEK293/SRE-Luc Blocking Activity” value is 1.5 nM.

Take B6: the “% Inhibition, HEK293/SRE-Luc Blocking Activity (HGF, 1 h mAb pre-bind)” value came to 42%; the “Fold Response, Ligand (HGF)-Independent HEK293/SRE-Luc Activation” value came to 1.4 fold; the “IC50, HEK293/SRE-Luc Blocking Activity” value was found to be 3.3 nM.

The next test addresses T1, human MET on cells. In words: cell-based or functional assay. This is another data set of the same source.
For the molecule B1, the “% Growth Inhibition, SNU5 cells” value was determined as 40% and the “IC50, SNU5 growth” value is 0.11 nM.

Turning to B2, the “% Growth Inhibition, SNU5 cells” value is 34% and the “IC50, SNU5 growth” value came to 0.044 nM.

As for B3, the “% Growth Inhibition, SNU5 cells” value stood at 53% and the “IC50, SNU5 growth” value came out at 0.1 nM.

With B4, the “% Growth Inhibition, SNU5 cells” value came out at 57% and the “IC50, SNU5 growth” value turned out to be 0.044 nM.

As to B5, the “% Growth Inhibition, SNU5 cells” value was 33% and the “IC50, SNU5 growth” value came to 0.074 nM.

As to B6, the “% Growth Inhibition, SNU5 cells” value was 33% and the “IC50, SNU5 growth” value is 0.1 nM.

The target in another test is T1, human MET on cells. Briefly: cell-based or functional assay. This is another data set of the same source.
Consider B7, for which the “IC50, 6-day in vitro cytotoxicity, A549” value came to 18.3 nM; the “IC50, 6-day in vitro cytotoxicity, EBC-1” value worked out at 0.39 nM; the “IC50, 6-day in vitro cytotoxicity, Hs746t” value (shortened to “IC50, 6-day … Hs746t”) is 1.59 nM; the “Max % Kill, 6-day in vitro cytotoxicity, A549” value (from here on “Max % Kill, 6-day … A549”) amounted to 89%. Moreover, the “Max % Kill, 6-day in vitro cytotoxicity, EBC-1” value (“Max % Kill, 6-day … EBC-1” for short) is 95% and the “Max % Kill, 6-day in vitro cytotoxicity, Hs746t” value (from here on “Max % Kill, 6-day … Hs746t”) is 87%.

Consider B8, for which the “IC50, 6-day in vitro cytotoxicity, A549” value was 6.78 nM; the “IC50, 6-day in vitro cytotoxicity, EBC-1” value was determined as 0.76 nM; the “IC50, 6-day … Hs746t” value stood at 1.76 nM; the “Max % Kill, 6-day … A549” value came out at 91%. For the same molecule, the “Max % Kill, 6-day … EBC-1” value is 96% and the “Max % Kill, 6-day … Hs746t” value amounted to 86%.

With B9, the “IC50, 6-day in vitro cytotoxicity, A549” value stood at 27.1 nM; the “IC50, 6-day in vitro cytotoxicity, EBC-1” value stood at 0.07 nM; the “IC50, 6-day … Hs746t” value was 0.89 nM; the “Max % Kill, 6-day … A549” value is 85%. Moreover, the “Max % Kill, 6-day … EBC-1” value turned out to be 95% and the “Max % Kill, 6-day … Hs746t” value stood at 90%.

As for B10, the “IC50, 6-day in vitro cytotoxicity, A549” value was determined as 21.4 nM; the “IC50, 6-day in vitro cytotoxicity, EBC-1” value amounted to 0.26 nM; the “IC50, 6-day … Hs746t” value worked out at 2.32 nM; the “Max % Kill, 6-day … A549” value stood at 72%. Besides, the “Max % Kill, 6-day … EBC-1” value came out at 96% and the “Max % Kill, 6-day … Hs746t” value came to 89%.

For the next test, the target named is T2, hMet.mmh (human MET extracellular domain with C-terminal myc-myc-hexahistidine tag) (human, UniProt P08581 309-914; P08581 27-307).
T2 construct: soluble monomeric MET; also called monomeric human MET
T2 sequence (P08581 other isoform, or with tags, fused parts or gaps limits assumed, chain 1 of 2): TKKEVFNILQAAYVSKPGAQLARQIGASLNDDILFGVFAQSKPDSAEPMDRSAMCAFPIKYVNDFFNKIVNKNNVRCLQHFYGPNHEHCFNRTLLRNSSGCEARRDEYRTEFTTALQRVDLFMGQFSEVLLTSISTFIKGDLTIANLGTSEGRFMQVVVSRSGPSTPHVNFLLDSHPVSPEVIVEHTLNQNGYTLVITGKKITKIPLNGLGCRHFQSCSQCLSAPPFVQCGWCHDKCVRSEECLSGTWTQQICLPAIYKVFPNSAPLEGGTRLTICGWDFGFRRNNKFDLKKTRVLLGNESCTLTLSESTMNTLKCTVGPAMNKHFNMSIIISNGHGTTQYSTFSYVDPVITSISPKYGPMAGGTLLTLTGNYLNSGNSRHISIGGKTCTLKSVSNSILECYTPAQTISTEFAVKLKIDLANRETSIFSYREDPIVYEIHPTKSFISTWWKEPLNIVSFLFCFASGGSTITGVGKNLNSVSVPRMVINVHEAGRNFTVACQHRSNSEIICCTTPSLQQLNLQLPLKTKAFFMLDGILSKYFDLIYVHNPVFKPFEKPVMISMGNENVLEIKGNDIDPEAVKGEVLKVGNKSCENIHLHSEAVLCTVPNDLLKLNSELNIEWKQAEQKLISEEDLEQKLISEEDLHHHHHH
T2 sequence (P08581 27-307 limits assumed, chain 2 of 2): as the sequence (P08581 27-307 limits assumed, chain 2 of 2) above
Briefly: SPR 37C, antibody captured. On the procedure: (§1) The anti-Met antibodies tested in this example were bivalent monospecific binders of MET.
(§2) Kinetic association (kₐ) and dissociation (kd) rate constants were determined by fitting the real-time sensorgrams to a 1:1 binding model using Scrubber 2.0c curve fitting software. Binding dissociation equilibrium constant (KD) and dissociative half-life (t1/2) were calculated from the kinetic rate constants as: […]
Consider B11, for which binding was put at a Kd of 3.35 nM; the T½ came out at 13.2 min; the koff – broadly, a measure of how fast the partners let go of each other – was 0.000873 s⁻¹; the kon (usually the second-order rate constant of association) was determined as 261000 M⁻¹ s⁻¹.

Take B12: the dissociation constant Kd (usually the equilibrium constant for the complex coming apart) was determined as 47 nM, the T½ is 4.7 min, the koff was determined as 0.00246 s⁻¹ and the on-rate (kon) turned out to be 52400 M⁻¹ s⁻¹.

For the molecule B13, binding was put at a Kd of 72.5 nM, the T½ was 4.8 min, the koff amounted to 0.00243 s⁻¹ and the on-rate (kon) was found to be 33500 M⁻¹ s⁻¹.

With B14, the equilibrium dissociation constant (Kd) was determined as 8.57 nM, the T½ amounted to 14.8 min, the koff came out at 0.00078 s⁻¹ and the kon was determined as 91000 M⁻¹ s⁻¹.

Consider B15, for which binding was put at a Kd of 24.8 nM, the T½ is 4.9 min, the koff was found to be 0.00236 s⁻¹ and the kon is 95300 M⁻¹ s⁻¹.

B16 returned a Kd of 32.4 nM, a T½ of 21.4 min, a koff of 0.00054 s⁻¹ and an on-rate (kon) of 16700 M⁻¹ s⁻¹.

B17 returned a Kd of 82.2 nM, a T½ of 1.9 min, a koff of 0.00622 s⁻¹ and a kon of 75700 M⁻¹ s⁻¹.

The next test addresses T3, hMET.mFc (dimeric human MET) (human, UniProt P08581 27-307).
T3 construct: soluble dimeric MET protein
In words: SPR 37C, antibody captured. On the procedure:
as §1, §2
Take B11: the Kd was 0.244 nM, the T½ came to 74.1 min, the koff came out at 0.000156 s⁻¹ and the kon was 639000 M⁻¹ s⁻¹.

The molecule B12 displayed a Kd of 2.33 nM, a T½ of 19.8 min, a koff of 0.000584 s⁻¹ and a kon of 251000 M⁻¹ s⁻¹.

Take B13: the dissociation constant (Kd) was 1.12 nM, the T½ worked out at 39.1 min, the koff came out at 0.000295 s⁻¹ and the kon stood at 265000 M⁻¹ s⁻¹.

With B14, the Kd is 0.878 nM, the T½ was 36.8 min, the koff stood at 0.000314 s⁻¹ and the kon turned out to be 357000 M⁻¹ s⁻¹.

As to B15, the dissociation constant Kd was determined as 0.605 nM, the T½ was found to be 62.4 min, the koff was 0.000185 s⁻¹ and the kon came out at 306000 M⁻¹ s⁻¹.

B16 showed a Kd of 1.16 nM, a T½ of 43.8 min, a koff of 0.000264 s⁻¹ and a kon of 228000 M⁻¹ s⁻¹.

As to B17, binding was put at a Kd of 1.62 nM, the T½ came out at 10.1 min, the koff came out at 0.00114 s⁻¹ and the kon was 705000 M⁻¹ s⁻¹.
